Like-named read-outs stand apart in the source and are kept apart here.
T1: mouse Robo 4 on MS-1 mouse endothelial cells (mouse, UniProt Q8C310 28-1012)
T1 sequence: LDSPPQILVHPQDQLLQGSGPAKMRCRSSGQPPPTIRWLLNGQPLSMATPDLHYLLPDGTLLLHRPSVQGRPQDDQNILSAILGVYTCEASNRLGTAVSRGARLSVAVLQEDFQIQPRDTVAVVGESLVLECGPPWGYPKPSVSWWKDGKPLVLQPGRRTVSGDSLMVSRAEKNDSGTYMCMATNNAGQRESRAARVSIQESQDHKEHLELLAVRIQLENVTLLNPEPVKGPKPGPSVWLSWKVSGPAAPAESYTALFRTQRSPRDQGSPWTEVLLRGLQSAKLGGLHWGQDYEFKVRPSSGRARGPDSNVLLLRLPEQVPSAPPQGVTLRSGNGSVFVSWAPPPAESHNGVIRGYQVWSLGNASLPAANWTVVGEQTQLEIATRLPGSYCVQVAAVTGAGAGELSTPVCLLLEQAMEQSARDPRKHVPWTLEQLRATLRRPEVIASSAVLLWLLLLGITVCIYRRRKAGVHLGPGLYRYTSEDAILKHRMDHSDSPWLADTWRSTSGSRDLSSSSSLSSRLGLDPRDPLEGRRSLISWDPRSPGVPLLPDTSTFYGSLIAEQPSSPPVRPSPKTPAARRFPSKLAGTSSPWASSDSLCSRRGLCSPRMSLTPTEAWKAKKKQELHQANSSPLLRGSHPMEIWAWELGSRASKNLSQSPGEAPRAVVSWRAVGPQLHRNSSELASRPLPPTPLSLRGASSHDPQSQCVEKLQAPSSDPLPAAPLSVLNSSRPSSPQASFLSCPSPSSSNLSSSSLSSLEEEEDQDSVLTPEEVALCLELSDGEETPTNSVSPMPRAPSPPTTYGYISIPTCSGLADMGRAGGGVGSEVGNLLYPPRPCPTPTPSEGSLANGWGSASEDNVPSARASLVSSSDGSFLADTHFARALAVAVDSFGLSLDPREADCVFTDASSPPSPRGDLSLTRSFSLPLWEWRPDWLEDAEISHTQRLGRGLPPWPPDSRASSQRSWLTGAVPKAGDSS

T2: full-length human Robo 4 (on cells) (human, UniProt Q8WZ75 28-1007)
T2 sequence: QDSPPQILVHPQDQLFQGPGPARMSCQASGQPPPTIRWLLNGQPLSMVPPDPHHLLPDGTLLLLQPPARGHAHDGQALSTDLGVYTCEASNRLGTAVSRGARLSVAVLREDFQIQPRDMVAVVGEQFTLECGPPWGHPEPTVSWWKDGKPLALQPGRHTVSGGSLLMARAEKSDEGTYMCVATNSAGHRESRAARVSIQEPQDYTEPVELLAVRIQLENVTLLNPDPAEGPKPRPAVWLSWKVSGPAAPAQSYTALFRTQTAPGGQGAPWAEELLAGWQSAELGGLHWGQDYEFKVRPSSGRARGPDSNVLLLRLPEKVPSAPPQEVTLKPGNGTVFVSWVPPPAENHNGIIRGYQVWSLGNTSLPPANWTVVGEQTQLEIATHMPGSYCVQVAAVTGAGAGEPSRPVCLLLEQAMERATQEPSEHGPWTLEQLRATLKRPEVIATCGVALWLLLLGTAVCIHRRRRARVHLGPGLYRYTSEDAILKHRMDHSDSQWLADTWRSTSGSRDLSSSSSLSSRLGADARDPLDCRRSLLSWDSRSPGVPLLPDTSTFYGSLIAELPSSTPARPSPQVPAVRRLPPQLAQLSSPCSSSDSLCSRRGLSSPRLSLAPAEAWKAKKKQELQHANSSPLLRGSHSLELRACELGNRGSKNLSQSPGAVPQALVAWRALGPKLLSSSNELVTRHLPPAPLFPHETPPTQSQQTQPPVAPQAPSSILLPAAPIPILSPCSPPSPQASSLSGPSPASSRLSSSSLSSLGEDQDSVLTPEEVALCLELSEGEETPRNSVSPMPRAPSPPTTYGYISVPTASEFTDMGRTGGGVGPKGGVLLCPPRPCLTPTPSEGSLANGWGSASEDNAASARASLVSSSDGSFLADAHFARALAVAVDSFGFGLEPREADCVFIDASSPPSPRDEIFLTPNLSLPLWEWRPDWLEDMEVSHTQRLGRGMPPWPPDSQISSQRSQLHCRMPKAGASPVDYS

B1: 01E06 hybridoma clone (Armenian hamster IgG, supernatant) (antibody, V domains shown)
VH: EVQLVESGGGLSQPGNSLKLSCEASGFTFRNYDMSWVRQAPGKGLEWVAYISSGGGPIYYVDAVKGRFTISRDNAKNLLFLQMNNLRSEDTAVYYCARDLADIGVFDYWGQGTMVTVSS
VL: DFKMTQSPDILSPSLGESVTITCQSSQNIYSNLAWYQQKPGEHPKLLIYTASILADGIPSRFTGSGSGTQFSLKISSLQPDDVANYYCQQYVYYRTFGPGTKLEIK
B2: 01F05 hybridoma clone (Armenian hamster IgG, supernatant) (antibody, V domains shown)
VH: QVQLKQSGAELVKPGASVKISCKTSVYTFTYGYMHWVEQKPGQGLEWIGRIDPDSGNSMYNQKFQGRATLTRDKSSSTVYMELRSLTSEDSAVYYCARSMRYSGYRDYALDLWGQGTQVTVSS
VL: QLVLTQSPSASASLGASVKLTCTLSSQHSSYGITWLQQHPDKAPKYVMYLKSDGSHTKGADIPDRFSGSSSGVHRYLSISNVQPEDEAIYFCVTYDSTHVFGSGTQLTVLG
B3: Molecule J, 1+1 Fab-CrossFab (VH/VL exchange in CD3 binder, CD3 binder V9, Robo 4 binder 01F05) (bispecific antibody)
chain 1: QVQLKQSGAELVKPGASVKISCKTSVYTFTYGYMHWVEQKPGQGLEWIGRIDPDSGNSMYNQKFQGRATLTRDKSSSTVYMELRSLTSEDSAVYYCARSMRYSGYRDYALDLWGQGTQVTVSSASTKGPSVFPLAPSSKSTSGGTAALGCLVKDYFPEPVTVSWNSGALTSGVHTFPAVLQSSGLYSLSSVVTVPSSSLGTQTYICNVNHKPSNTKVDKKVEPKSCDGGGGSGGGGSDIQMTQSPSSLSASVGDRVTITCRASQDIRNYLNWYQQKPGKAPKLLIYYTSRLESGVPSRFSGSGSGTDYTLTISSLQPEDFATYYCQQGNTLPWTFGQGTKVEIKSSASTKGPSVFPLAPSSKSTSGGTAALGCLVKDYFPEPVTVSWNSGALTSGVHTFPAVLQSSGLYSLSSVVTVPSSSLGTQTYICNVNHKPSNTKVDKKVEPKSC
chain 2: QLVLTQSPSASASLGASVKLTCTLSSQHSSYGITWLQQHPDKAPKYVMYLKSDGSHTKGADIPDRFSGSSSGVHRYLSISNVQPEDEAIYFCVTYDSTHVFGSGTQLTVLGQPKAAPSVTLFPPSSEELQANKATLVCLISDFYPGAVTVAWKADSSPVKAGVETTTPSKQSNNKYAASSYLSLTPEQWKSHRSYSCQVTHEGSTVEKTVAPTECS
chain 3: EVQLVESGGGLVQPGGSLRLSCAASGYSFTGYTMNWVRQAPGKGLEWVALINPYKGVSTYNQKFKDRFTISVDKSKNTAYLQMNSLRAEDTAVYYCARSGYYGDSDWYFDVWGQGTLVTVSSASVAAPSVFIFPPSDEQLKSGTASVVCLLNNFYPREAKVQWKVDNALQSGNSQESVTEQDSKDSTYSLSSTLTLSKADYEKHKVYACEVTHQGLSSPVTKSFNRGEC
B4: Molecule B, 1+1 CrossFab-IgG (VH/VL exchange in CD3 binder, CD3 binder V9, Robo 4 binder 01F05) (bispecific antibody)
chain 1: not shown
chain 2: B3 chain 2
chain 3: B3 chain 3
chain 4: DKTHTCPPCPAPEAAGGPSVFLFPPKPKDTLMISRTPEVTCVVVDVSHEDPEVKFNWYVDGVEVHNAKTKPREEQYNSTYRVVSVLTVLHQDWLNGKEYKCKVSNKALGAPIEKTISKAKGQPREPQVCTLPPSRDELTKNQVSLSCAVKGFYPSDIAVEWESNGQPENNYKTTPPVLDSDGSFFLVSKLTVDKSRWQQGNVFSCSVMHEALHNHYTQKSLSLSPGK
B5: Molecule G, 1+1 Fab-CrossFab (VH/VL exchange in CD3 binder, CD3 binder V9, Robo 4 binder 01E06) (bispecific antibody)
chain 1: EVQLVESGGGLSQPGNSLKLSCEASGFTFRNYDMSWVRQAPGKGLEWVAYISSGGGPIYYVDAVKGRFTISRDNAKNLLFLQMNNLRSEDTAVYYCARDLADIGVFDYWGQGTMVTVSSASTKGPSVFPLAPSSKSTSGGTAALGCLVKDYFPEPVTVSWNSGALTSGVHTFPAVLQSSGLYSLSSVVTVPSSSLGTQTYICNVNHKPSNTKVDKKVEPKSCDGGGGSGGGGSDIQMTQSPSSLSASVGDRVTITCRASQDIRNYLNWYQQKPGKAPKLLIYYTSRLESGVPSRFSGSGSGTDYTLTISSLQPEDFATYYCQQGNTLPWTFGQGTKVEIKSSASTKGPSVFPLAPSSKSTSGGTAALGCLVKDYFPEPVTVSWNSGALTSGVHTFPAVLQSSGLYSLSSVVTVPSSSLGTQTYICNVNHKPSNTKVDKKVEPKSC
chain 2: DFKMTQSPDILSPSLGESVTITCQSSQNIYSNLAWYQQKPGEHPKLLIYTASILADGIPSRFTGSGSGTQFSLKISSLQPDDVANYYCQQYVYYRTFGPGTKLEIKRTVAAPSVFIFPPSDEQLKSGTASVVCLLNNFYPREAKVQWKVDNALQSGNSQESVTEQDSKDSTYSLSSTLTLSKADYEKHKVYACEVTHQGLSSPVTKSFNRGEC
chain 3: B3 chain 3
B6: Molecule I, 1+1 Fab-CrossFab (VH/VL exchange in CD3 binder, CD3 binder V9, Robo 4 binder 01F09) (bispecific antibody)
chain 1: QIQLQESGPGLVKPSQSLSLTCSVTGYSISSGSLWTWIRQFPGNNLEWMGYISYAGGIDYNPSLTSRISITRDTSRNQFFLQLESVTTQDTATYYCATPGGYPFHFDYWGQGTMVTVSSASTKGPSVFPLAPSSKSTSGGTAALGCLVKDYFPEPVTVSWNSGALTSGVHTFPAVLQSSGLYSLSSVVTVPSSSLGTQTYICNVNHKPSNTKVDKKVEPKSCDGGGGSGGGGSDIQMTQSPSSLSASVGDRVTITCRASQDIRNYLNWYQQKPGKAPKLLIYYTSRLESGVPSRFSGSGSGTDYTLTISSLQPEDFATYYCQQGNTLPWTFGQGTKVEIKSSASTKGPSVFPLAPSSKSTSGGTAALGCLVKDYFPEPVTVSWNSGALTSGVHTFPAVLQSSGLYSLSSVVTVPSSSLGTQTYICNVNHKPSNTKVDKKVEPKSC
chain 2: QPVLTQSPSASASLGASVKLTCTLNSQFSTYNIGWYQQHRDKPPKYVMFVKGDGGHSKADGIPDRFSGSSSGADRYLTISNIQAEDEAIYFCGADYNNAGQYGCVFGSGTHFTVLGQPKAAPSVTLFPPSSEELQANKATLVCLISDFYPGAVTVAWKADSSPVKAGVETTTPSKQSNNKYAASSYLSLTPEQWKSHRSYSCQVTHEGSTVEKTVAPTECS
chain 3: B3 chain 3
B7: Molecule C, 1+1 CrossFab-IgG (VH/VL exchange in CD3 binder, CD3 binder V9, Robo 4 binder 01E06) (bispecific antibody)
chain 1: not shown
chain 2: B5 chain 2
chain 3: B3 chain 3
chain 4: B4 chain 4

Tests used:
[1] = target: T3, recombinant human Robo1 antigen (human, UniProt Q9Y6N7 59-886, limits assumed); test: ELISA, hybridoma supernatant
T3 construct: limits of the construct and tags are not described in the text; also called human Robol

[2] = target: T1, mouse Robo 4 on MS-1 mouse endothelial …; test: cell-based or functional assay
[3] = target: T2, full-length human Robo 4 (on cells); test: cell-based or functional assay
[4] = target: T1, mouse Robo 4 on MS-1 mouse endothelial …; test: cell-based or functional assay; remark: listed apart in the source
[5] = target: T2, full-length human Robo 4 (on cells); test: cell-based or functional assay; remark: listed apart in the source
[6] = target: T2, full-length human Robo 4 (on cells); test: cell-based or functional assay; remark: listed apart in the source

T3 sequence (Q9Y6N7 other isoform, or with tags, fused parts or gaps limits assumed): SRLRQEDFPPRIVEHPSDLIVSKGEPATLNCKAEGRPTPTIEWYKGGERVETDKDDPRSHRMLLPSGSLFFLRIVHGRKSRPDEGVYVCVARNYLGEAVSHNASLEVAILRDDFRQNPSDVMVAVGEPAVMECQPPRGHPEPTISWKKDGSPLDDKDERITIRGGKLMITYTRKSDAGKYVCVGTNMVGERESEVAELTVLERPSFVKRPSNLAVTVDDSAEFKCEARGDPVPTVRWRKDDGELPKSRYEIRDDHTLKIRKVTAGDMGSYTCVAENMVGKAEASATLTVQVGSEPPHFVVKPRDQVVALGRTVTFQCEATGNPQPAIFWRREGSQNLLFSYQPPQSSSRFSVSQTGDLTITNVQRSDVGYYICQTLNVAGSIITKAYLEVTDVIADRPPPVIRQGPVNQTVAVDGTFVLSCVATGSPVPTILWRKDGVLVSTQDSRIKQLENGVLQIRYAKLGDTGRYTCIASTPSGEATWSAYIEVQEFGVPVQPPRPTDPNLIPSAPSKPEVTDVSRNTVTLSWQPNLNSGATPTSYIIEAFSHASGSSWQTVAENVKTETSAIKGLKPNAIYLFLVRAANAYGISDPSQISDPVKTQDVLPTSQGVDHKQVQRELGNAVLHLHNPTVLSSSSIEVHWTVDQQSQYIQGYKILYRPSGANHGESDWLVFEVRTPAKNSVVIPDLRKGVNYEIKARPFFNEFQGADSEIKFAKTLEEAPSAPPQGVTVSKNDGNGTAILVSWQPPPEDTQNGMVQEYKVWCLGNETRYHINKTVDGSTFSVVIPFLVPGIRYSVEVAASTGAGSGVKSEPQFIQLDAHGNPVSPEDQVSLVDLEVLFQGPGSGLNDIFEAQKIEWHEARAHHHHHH

Binder	EC50 of T-cell mediated killing of MS-1 cells (LDH release, human pan T cells, E:T 5:1, 17 h) [2]	EC50 of T-cell mediated killing of HUVECs (LDH release, human pan T cells, E:T 5:1, 22 h) [3]	other results
B1			binding result [1]: no binding
B2			binding result [1]: no binding
B3	0.004 nM	0.026 nM	EC50 of T-cell mediated killing of MS-1 cells (LDH release, human PBMCs, E:T 10:1), 24 h [4]: 0.294 nM; EC50 of T-cell mediated killing of MS-1 cells (LDH release, human PBMCs, E:T 10:1), 48 h [4]: 0.106 nM; EC50 of T-cell mediated killing of HUVECs (LDH release, human PBMCs, E:T 10:1), 24 h [5]: 0.105 nM; EC50 of T-cell mediated killing of HUVECs (LDH release, human PBMCs, E:T 10:1), 48 h [5]: 0.0472 nM; EC50 of T-cell mediated killing of HUVECs (LDH release, human PBMCs, E:T 10:1), 24 h [6]: 0.204 nM; EC50 of T-cell mediated killing of HUVECs (LDH release, human PBMCs, E:T 10:1), 48 h [6]: 0.127 nM
B4	0.115 nM	0.164 nM	EC50 of T-cell mediated killing of HUVECs (LDH release, human PBMCs, E:T 10:1), 24 h [6]: 1.61 nM; EC50 of T-cell mediated killing of HUVECs (LDH release, human PBMCs, E:T 10:1), 48 h [6]: 1.55 nM
B5	0.352 nM	0.036 nM	
B6	4.56 nM	0.198 nM	
B7	0.472 nM	0.046 nM	
